Where only a bound is given, the exact number is not on record here.

The text below walks through data of patent US20110311550A1 (Scripps Research, published 2011).

Assay [1] deals with HCV E1E2 complex, isolate HCV-1 (genotype 1a), vaccinia-expressed (hepatitis C virus genotype 1a, isolate …, UniProt P26664 192-383; P26664 384-746). As to the kind of experiment: apparent affinity: half-maximal binding, ELISA on lectin-captured E1E2.
Assay [2] has as its target T1, HCV E1E2 complex, isolate H77 (genotype 1a) (hepatitis C virus genotype 1a, isolate …, UniProt P27958 192-383; P27958 384-746). The description is as above.
The target in assay [3] is T1, HCV E1E2 complex, isolate H77 (genotype …). In words: Fab ELISA on unmasked E1E2.
Assay [4] has the same target. As to the kind of experiment: Fab screen after panning on E1E2 (H77).
For assay [5], the target named is E1E2 (Env) of HCV isolate UKN2A1.2 (genotype 2a) on HCVpp (hepatitis C virus, isolate UKN2A1.2). As to the kind of experiment: cell-based or functional assay.
Assay [6] deals with E1E2 (Env) of HCV isolate J6 (genotype 2a) on HCVpp (hepatitis C virus, isolate J6, UniProt P26660 192-383; P26660 384-750). In words: cell-based or functional assay.
In assay [7] the target is E1E2 (Env) of HCV isolate UKN4.21.16 (genotype 4) on HCVpp (hepatitis C virus, isolate UKN4.21.16). In words: cell-based or functional assay.
For assay [8], the target named is E1E2 (Env) of HCV isolate UKN1B12.16 (genotype 1b) on HCVpp (hepatitis C virus, isolate UKN1B12.16). In words: cell-based or functional assay.
In assay [9] the target is E1E2 (Env) of HCV isolate UKN5.15.7 (genotype 5) on HCVpp (hepatitis C virus, isolate UKN5.15.7). In words: cell-based or functional assay.
Assay [10] addresses E1E2 (Env) of HCV isolate H (genotype 1a) on HCVpp (hepatitis C virus, isolate H). In words: cell-based or functional assay.
In assay [11] the target is E1E2 (Env) of HCV isolate OH8 (genotype 1b) on HCVpp (hepatitis C virus, isolate OH8). As to the kind of experiment: cell-based or functional assay.
For assay [12], the target named is VSV (control pseudotype virus envelope). As to the kind of experiment: cell-based or functional assay.
In assay [13] the target is E1E2 (Env) of HCV isolate UKN2B1.1 (genotype 2b) on HCVpp (hepatitis C virus, isolate UKN2B1.1). As to the kind of experiment: cell-based or functional assay.

B1: MAb AR1B (IgG1 from Fab D1) (antibody, V domains shown)
VH: LESGGGLVQPGGSLRLSCEASGYYFSSFAMSWVRQTPGKGLEWVSSIAGGTLGRTSYRDSVKGRFTISRDNSKNTVFLHMNNLRPEDTAVYYCAKDPLLFAGGPNWFDHWGQGTLVTVSS
VL: not shown
B1: the 50% effective concentration (EC50) is 0.4 nM in assay [1] and 0.6 nM in assay [2].

B2: Fab P3 (Fab, V domains shown)
VH: EVQLLESGGGVVQPGKSLRLSCAVSGFTLNTFAMHWVRQVPGKGLEWVALTSHDGSRQDYADSVRGRFTISRDNSKSMVFLLMNSLRAEDTAVYYCVRGGPAYYTYNDVLTGYAYVVGDFWGQGTLVTVSS
VL: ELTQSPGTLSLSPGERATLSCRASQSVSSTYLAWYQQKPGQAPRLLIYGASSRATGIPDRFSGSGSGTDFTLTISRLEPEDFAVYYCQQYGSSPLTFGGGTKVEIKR
As to B2, the binding result in [3] is on record as “binds”.

B3: Fab P1 (Fab, V domains shown)
VH: EVQLLESGGGVVQPGGSLRLSCAASGFTFTSFTMHWVRQAPGKGLEWVALISHDGSNKDYADSVRGRFTVSRDNSKKMVYLQMSSLRPDDAAVYYCARGGPAYYTYSDTLTGYHNVVGDYWGQGTLVTVSS
VL: ELTQSPGTLSLSPGERATLSCRASQVRGFLAWFQQKPGQAPRLLIYGASNRAPGIPDRFSGSGSGTDFTLTISRLEPEDFAVYYCQQYGDSPPITFGQGTRLEIKR
notes: Soluble Fab
B3: in assay [3], the binding result is “binds”.

B4: Fab P1a (Fab, V domains shown)
VH: EVQLLESGGGVVQPGGSLRLSCAASGFTFTSFTMHWVRQAPGKGLEWVALISHDGSNKDYADSVRGRFTVSRDNSKKMVYLQMSSLRPDDAAVYYCARGGPAYYTYSDTLTGYHNVVGDYWGQGTLVTVSS
VL: ELTQSPGTLSLSPGERATLSCRTSQSVSSTYLAWYQQKPGQPPRLLIYGASNRAPGIPDRFSGSGSGTDFTLTISRLEPEDFAVYYCQQYGDSPPITFGQGTRLDIKR
On to B4, for which the binding result in assay [3] is “binds”.

B5: Fab U1 (Fab, V domains shown)
VH: VQLLEQSGPEVKRPGTSVKMSCKISGGASITQAMSWVRQAPGQGLEWMGGITPIFGTVNYAQKILGRVTITADEDTVSLELSSLKSEDTAVYYCAREVNLKTWNLAHPNVFDVWGQGTMLTVSS
VL: ELTQSPSSLSASVGDRVTITCRASQSISSFLNWYQQKPGKAPKLLIYAASSLQSGVPPRFSGSGSGTDFTLTISSLQPEDFATYYCQQSYSTPRTFGQGTKLEIKR
For the molecule B5, the binding result in assay [3] is recorded as “binds”.

B6: Fab U3 (Fab, V domains shown)
VH: VQLLEQSGAEVKRPGSSVKISCKNSGGTFITQAMSWVRQAPGQGLEWMGGIIPIFGTVNYAQKILGRVTITADEDTVSMELSSLGFEDTAVYYCAREVNLKSWNLAHPDVFDIWGQGTLVTVSS
VL: ELTQSPSSLSASVGDRVTITCRASQSIRSYLNWYQQKPGKAPNLLIYSASNLQSGVPSRFRGSGSGTDFTLTISSLQPEDFATYYCQQSYRTPRTFGQGTKVESKR
B6: the binding result in assay [4] was “binds”.

B7: Fab U2 (Fab, V domains shown)
VH: VQLLEQSGAEVKRPGSSVKLSCKNSGGTFITQAMSWVRQAPGQGLEWMGGIIPVFGTVNYAQNILDRATATADEDTFSLELRGLRLEDTAVYYCAREVNLKTWNLARPDVFDIWGPGTLVTVSS
VL: ELTQSPSSLSASIGDRVTIPCRASQSILNHLNWYQQKPGQPPKLLIFAASNLQSGVPSRFSGSGSGTDFTLTISSLQTEDFATYYCQQSYSTPRTFGQGTKVEVKR
Regarding B7, the binding result in assay [4] is “binds”.

B8: MAb AR3B (antibody, V domains shown)
VH: LEQSGPEVKKPGSSVKVSCKDSGDTFNEPVTWVRQAPGQGLEWIGGIIPAFGVTKYAQKFQGRVIISADASTATAYLELSSLRSEDTAVYYCAKVGLRGIVMVGGLAMNWLDPWGQGTQVTVSS
VL: not shown
Take B8: the “Neutralizing activity (IC50) on HCVpp” value in assay [5] amounted to 5 µg/mL; in [6], 10 µg/mL; in assay [7] it was 1 µg/mL; in [8] it was 1 µg/mL; in assay [9], 1 µg/mL; in assay [10] it was 1 µg/mL. Also, the “Neutralizing activity (IC50) on HCVpp” value in assay [11] worked out at 5 µg/mL; in assay [13], 10 µg/mL. For the same molecule, the “Neutralizing activity (IC50) on control pseudotype virus” value in assay [12] was greater than 50 µg/mL.

B9: MAb AR2A (IgG1 from Fab G) (antibody, V domains shown)
VH: LEQSGAEMKKPGASLKVSCKTSGYTFDDYGVTWVRQAPGQGLEWMGWISAYSGNTFYARKFQGRVTMTTDPSTRTAYMELRSLRSDDTAVYFCARDRGLAINGVVFPYFGLDVWGQGTTVTVSS
VL: ELTQSPVSLPVTPGEPASISCRSSQSLLHSNGNHYLDWYLQKPGQSPQLLMYLGSNRASGVPDRFSGSGSGTDFTLKISRVEAEDVGVYYCMQGLQTPWTFGQGTKVEIKR
notes: also called G IgG
For B9, the EC50 in assay [1] is 3.1 nM; in assay [2], 1.6 nM.

B10: Fab T1 (Fab, V domains shown)
VH: EVQLLESGGGLVQPGGSLRLSCAASGFTFSRFWMHWVRQAPGKGLVWVARINSDGSSTTYADSVKGRFTISRDNAKNTLYLQMNSLRDEDTAVYFCARGGDSSSPYYYPMDVWGQGTTVAVSS
VL: not shown
Regarding B10, in [3], the binding result is on record as “binds”.

B11: Fab O1 (Fab, V domains shown)
VH: VQLLEQSGAEVKKAGESVRLSCKASGYRFGDYWIAWVRQLPGRAPEWMGIIYPDDSDTKYSPSFQGQVTISADKSIRTTFLDWGSLKASDTAIYYCARGCLGAKCYYPHYYYGLDVWGQGTTVIVSS
VL: ELTQSPSSLSASVGDRVTITCRATQGIDNYLNWYQQKPGKPPRLLIYGASSLQSGVPSRFSGGGSGTHFTLTITNLQPEDFATYYCQQSYSTPPETFGQGTKVEIKR
notes: Soluble Fab
For the molecule B11, the binding result in assay [3] is listed as “binds”.

B12: Fab N3 (Fab, V domains shown)
VH: VQLLEQSGAEVKKPGDSLRISCKMSGDSLVWIGWVRQKPGQGLEWMGIINPGDSATNIYPGDSDTRYGPSFQGQVTISIDKSTSTAYLQWNAVKASDTGIYYCARHVPVPISGTFLWREREMHDLGYFDDWGQGTLVIVSS
VL: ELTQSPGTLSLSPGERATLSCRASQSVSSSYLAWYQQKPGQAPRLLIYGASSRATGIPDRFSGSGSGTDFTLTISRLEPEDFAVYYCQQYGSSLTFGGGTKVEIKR
notes: Soluble Fab
B12: the binding result in assay [3] is listed as “binds”.

B13: Fab N1 (Fab, V domains shown)
VH: VQLLEQSGPEVKKPGDSLRISCKMSGDSLVTTWIGWVRQKPGQGLEWMGIINPGDSSTNIYPGDSATRYGPSFQGQVTISIDKSTSTAYLQWNAVKPSDTGIYYCARHVPVPISGTFLWREREMHDFGYFDDWGQGTLVIVSS
VL: ELTQSPGTLSLSPGERATLSCRASQSVSSSYLAWYQQKPGQAPRLLIYGASNRAAGIPDRFSGSGSGADFTLTISRLEPEDFAVYYCQQYGSSLITFGQGTRLEIKR
notes: Soluble Fab
In the case of B13, the binding result in assay [3] is reported as “binds”.

B14: Fab N2 (Fab, V domains shown)
VH: VQLLEQSGPEVKKPGDSLRISCKMSGDSLVTTWIGWVRQKPGQGLEWMGIINPGDSSTNIYPGDSATRYGPSFQGQVTISIDKSTSTAYLQWNTVKPSDTGIYYCARHVPVPISGTFLWREREMHDFGYFDDWGQGTLVIVSS
VL: ELTQSPGTLSLFPGERATLSCRASQSILGRYLAWYQQKGGRAPRLLIFGASKRATGIPDRFSGSGSGTDFTLTIGRLEPEDFAVYYCQHYGSSITFGQGTRLDIKR
notes: Soluble Fab
For B14, in assay [3], the binding result is given as “binds”.

B15: Fab S2 (Fab, V domains shown)
VH: VQLLEQSGAEVKKPGASVKVSCTASGYIFTSFGISWVRQAPGQGLEWMGRIDTYNGKTNYAQKLQGRVTMTTDTYTSTAYMELRSLTSDDTAVYYCARDDCRSSTCYLAQHNWQAYYHDSWGQGTLVTVSS
VL: ELTQSPATLSLSPGERATLSCRASQSVSSRFLAWYQQKPGQAPRLLIYGASSRATGIPDRFSGSGSGTDFTLTISRLEPEDFAVYYCQQYGSSPQTFGQGTKVEIKR
In the case of B15, the binding result in assay [4] was “binds”.

B16: Fab S1 (Fab, V domains shown)
VH: VQLLEQSGAEVKKPGTSVKVSCTASGYIFTSFGISWVRQAPGQGLEWMGRIDTYNGKTNYAQKLQGRVTMTTDTYTSTAYMELRSLTSDDTAVYYCARDDCRSSTCYLAQHNWQAYYHDSWGQGTLVTVSS
VL: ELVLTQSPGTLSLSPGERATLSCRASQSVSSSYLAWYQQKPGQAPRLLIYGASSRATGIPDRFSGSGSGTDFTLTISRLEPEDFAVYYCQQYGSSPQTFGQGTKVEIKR
For B16, the binding result in [3] is on record as “binds”.
